Results: US20240076386A1 (Pfizer, published 2024)

T1: cynomolgus monkey E-selectin extracellular domain with 10 His purification tail (cynomolgus monkey, UniProt P16581 22-554 (human entry))
T1 construct: also called cynomolgus E-selectin; truncated cynomolgus monkey E-selectin
T1 chain: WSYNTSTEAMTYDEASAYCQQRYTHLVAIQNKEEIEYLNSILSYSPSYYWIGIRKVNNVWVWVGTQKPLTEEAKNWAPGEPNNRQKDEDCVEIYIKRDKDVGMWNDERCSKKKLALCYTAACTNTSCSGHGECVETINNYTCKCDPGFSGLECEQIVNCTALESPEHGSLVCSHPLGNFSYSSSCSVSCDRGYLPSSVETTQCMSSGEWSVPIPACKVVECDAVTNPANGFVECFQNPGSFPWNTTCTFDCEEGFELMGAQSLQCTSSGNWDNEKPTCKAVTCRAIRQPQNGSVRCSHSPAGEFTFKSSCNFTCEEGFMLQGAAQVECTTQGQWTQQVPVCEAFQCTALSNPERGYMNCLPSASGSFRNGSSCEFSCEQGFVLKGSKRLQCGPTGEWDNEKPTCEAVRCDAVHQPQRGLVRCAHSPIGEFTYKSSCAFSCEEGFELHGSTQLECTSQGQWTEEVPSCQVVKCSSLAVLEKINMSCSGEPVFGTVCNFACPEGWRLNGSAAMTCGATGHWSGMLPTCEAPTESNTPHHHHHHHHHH

T2: cynomolgus monkey E-selectin, cell-surface expressed (cynomolgus monkey, UniProt P16581 22-610 (human entry))
T2 construct: also called CHO-cynomolgus monkey E-selectin cells; cynomolgus monkey CHO-E
T2 chain: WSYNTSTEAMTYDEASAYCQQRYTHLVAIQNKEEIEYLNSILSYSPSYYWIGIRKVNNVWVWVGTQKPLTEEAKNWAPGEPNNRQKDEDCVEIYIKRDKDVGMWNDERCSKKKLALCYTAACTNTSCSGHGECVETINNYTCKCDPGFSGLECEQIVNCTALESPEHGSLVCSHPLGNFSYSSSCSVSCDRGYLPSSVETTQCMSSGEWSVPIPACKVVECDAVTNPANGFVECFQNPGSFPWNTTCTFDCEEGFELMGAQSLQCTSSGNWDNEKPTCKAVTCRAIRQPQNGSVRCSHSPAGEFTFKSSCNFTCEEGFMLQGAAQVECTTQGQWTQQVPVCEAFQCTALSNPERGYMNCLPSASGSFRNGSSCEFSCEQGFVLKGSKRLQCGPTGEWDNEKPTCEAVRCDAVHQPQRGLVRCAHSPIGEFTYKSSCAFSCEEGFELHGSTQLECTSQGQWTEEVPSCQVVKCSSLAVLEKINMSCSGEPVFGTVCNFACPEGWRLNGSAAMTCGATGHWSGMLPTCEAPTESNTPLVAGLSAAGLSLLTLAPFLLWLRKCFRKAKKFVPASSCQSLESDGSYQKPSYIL


What was measured:
[1] = biological target: T1, cynomolgus monkey E-selectin …; test: AlphaLISA competition vs sialyl Lewis A-PAA-biotin; AlphaLISA neutralization assay (ligand competition), not SPR
Method: The neutralization ability of anti-E-selectin antibodies was measured in an AlphaLISA homogenous competition assay. […] This was incubated at room temperature for 15 minutes, followed by addition of 1.4 μL of human, mouse or cynomolgus monkey E-selectin added to a final concentration of 7 nM. This was again incubated at room temperature for 15 minutes. To this, 1.4 μL AlphaLISA beads was added (Ni-donor/SA-acceptor) for a final assay concentration of 10 μg/mL. This was incubated in the dark at room temperate for at least 10 hours. The plates were then read using the AlphaLISA protocol (Envision).

[2] = biological target: T2, cynomolgus monkey E-selectin, …; test: flow cytometry, CHO cells, 6 experiments
Method: Binding studies with CHO cells were performed in duplicate using two rows of a 96-well round bottom plate, whereas, binding studies with primary endothelial cells were performed in a single row of a 96-well V-bottom plate. The plates were centrifuged at 300×g for 2 minutes at 4° C. and the cells were resuspended and blocked by incubation in the CHO buffer for 10 minutes on wet ice. After incubation, the cells were centrifuged at 300×g for 2 minutes at 4° C. to remove the buffer. […] After incubation with the antibody, the cells were washed three times by centrifugation at 300×g for 1 minute at 4° C. and resuspended in cold CHO buffer. The washed cells were resuspended and incubated with 100 μL of 1:1000 dilution of AlexaFluor647-conjugated goat anti-human F(ab′)₂ Fragment (Fcγ fragment specific antibody, [Jackson Innnnunoresearch, 109-606-170] for 45 minutes (CHO cells) or 30 minutes (endothelial cells) on wet ice. The cells were washed three or four times prior to resuspension in CHO buffer for flow cytometric analysis. A Becton Dickinson LSRFortessa instrument using 640 nanometer laser line was used to acquire cell fluorescence data. Geometric mean fluorescence of cells was analyzed by FlowJo software package (FlowJo, LLC) and plotted against antibody concentration. […]

Binder | EC50 [1] [nM] | EC50 [2] [nM]
anti-E-selectin antibody 0158 chimera (antibody, human IgG1, kappa, V domains shown, rat VH/VL on effector-null human IgG1 and human kappa) VH: QVQLKESGPGLVQPSETLSLTCTVSGFSISTYNVHWLRQPPGKGLEWMGMMWSGGSPDYNSALKSRLSISRDTSKNQVFLKMNSLQSEDTTTYYCARWGGGFDYWGQGVMVTVSS VL: DIVLTQSPTTLSVTPGETVSLSCRASHSIGTNLHWYQQKTNESPRLLIKFTSQSISGIPSRFSASGSGTDFTLNINNVEFDDVSSYFCQQTQSWPLTFGSGTKLEIKR | < 1 | 
optimized anti-E-selectin antibody 1444 (antibody, human IgG1, kappa, V domains shown, effector-null human IgG1, kappa) VH: EVQLVESGGGLVQPGGSLRLSCAASGYAIRSAYMHWVRQAPGKGLEWVARIDPANGNTIYVDSVTGRFTISADNAKNSAYLQMNSLRAEDTAVYYCAMDLYSTSEYWGQGTLVTVSS VL: DIQMTQSPSSLSASVGDRVTITCKTSQNIERYLNWYQQKPGKAPKLLIYAASSLQSGVPSRFSGSGSGTDFTLTISSLQPEDFATYFCLQDNAWPLTFGQGTKVEIKR |  | 0.75 to 1.37
